Reference: paper PMC4686834, “Autocrine selection of a GLP-1R G-protein biased agonist with potent antidiabetic effects” (Nature Communications, 2015)

Tests used:
[1] = target: human GLP-1 receptor (stable CHO cell line) (human) (UniProt P43220)
[2] = target: mouse GLP-1 receptor (HEK293 cell line) (mouse) (UniProt O35659)
Sequence of mouse GLP-1 receptor (HEK293 cell line) (mouse) (O35659 22-463): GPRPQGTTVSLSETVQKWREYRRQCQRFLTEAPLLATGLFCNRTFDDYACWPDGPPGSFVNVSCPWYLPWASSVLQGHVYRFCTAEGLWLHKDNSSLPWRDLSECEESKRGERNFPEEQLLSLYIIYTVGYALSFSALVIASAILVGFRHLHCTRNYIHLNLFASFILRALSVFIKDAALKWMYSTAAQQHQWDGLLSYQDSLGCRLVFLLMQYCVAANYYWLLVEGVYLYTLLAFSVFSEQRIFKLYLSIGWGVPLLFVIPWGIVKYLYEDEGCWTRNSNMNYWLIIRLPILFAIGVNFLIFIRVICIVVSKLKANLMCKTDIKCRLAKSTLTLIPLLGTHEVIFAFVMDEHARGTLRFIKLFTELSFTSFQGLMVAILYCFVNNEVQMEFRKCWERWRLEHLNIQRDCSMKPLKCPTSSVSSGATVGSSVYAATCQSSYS

Sequence of human GLP-1 receptor (stable CHO cell line) (human) (P43220 24-463): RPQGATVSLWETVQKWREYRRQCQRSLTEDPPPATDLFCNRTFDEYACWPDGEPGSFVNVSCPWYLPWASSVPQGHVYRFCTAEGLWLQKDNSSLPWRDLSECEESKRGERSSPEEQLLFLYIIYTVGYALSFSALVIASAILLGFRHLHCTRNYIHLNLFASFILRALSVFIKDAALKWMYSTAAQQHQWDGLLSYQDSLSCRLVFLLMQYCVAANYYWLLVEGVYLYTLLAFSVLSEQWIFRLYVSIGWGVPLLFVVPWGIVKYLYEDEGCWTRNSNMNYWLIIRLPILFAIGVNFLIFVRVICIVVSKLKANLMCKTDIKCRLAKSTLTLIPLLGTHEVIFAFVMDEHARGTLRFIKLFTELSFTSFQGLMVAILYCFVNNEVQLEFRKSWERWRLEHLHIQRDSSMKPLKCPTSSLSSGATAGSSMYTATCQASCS

“Exendin-4 (from UniProt P26349 48-87) (peptide)” gave an EC50, cAMP production (Gαs; HTRF) in CHO cells expressing human GLP-1R [1] of 0.091 nM and an EC50, cAMP production (Gαs; HTRF) in HEK293 cells expressing mouse GLP-1R [2] of 0.322 nM.
